# Measured values published in IntAct's records for PubMed 35512704.
# B1: Mothers against decapentaplegic homolog 4 (Homo sapiens), Q13485 (parent)
# chain: MDNMSITNTPTSNDACLSIVHSLMCHRQGGESETFAKRAIESLVKKLKEKKDELDSLITAITTNGAHPSKCVTIQRTLDGRLQVAGRKGFPHVIYARLWRWPDLHKNELKHVKYCQYAFDLKCDSVCVNPYHYERVVSPGIDLSGLTLQSNAPSSMMVKDEYVHDFEGQPSLSTEGHSIQTIQHPPSNRASTETYSTPALLAPSESNATSTANFPNIPVASTSQPASILGGSHSEGLLQIASGPQPGQQQNGFTGQPATYHHNSTTTWTGSRTAPYTPNLPHHQNGHLQHHPPMPPHPGHYWPVHNELAFQPPISNHPAPEYWCSIAYFEMDVQVGETFKVPSSCPIVTVDGYVDPSGGDRFCLGQLSNVHRTEAIERARLHIGKGVQLECKGEGDVWVRCLSDHAVFVQSYYLDREAGRAPGDAVHKIYPSAYIKVFDLRQCHRQMQQQAATAQAAAAAQAAAVAGNIPGPGSVGGIAPAISLSAAAGIGVDDLRRLCILRMSFVKGWGPDYPRQSIKETPCWIEIHLHRALQLLDEVLHTMPIADPQPLD
# Variants of: B1
# Conditions: with ros1_human ROS1, P08922
row,effect of a mutation on the interaction,Variant
1,with no effect,R361C

# Variants of: B1
# Conditions: with ks6b1_human RPS6KB1, P23443
row,effect of a mutation on the interaction,Variant
1,with no effect,R361C

# Variants of: B1
# Conditions: with runx1_human RUNX1, Q01196
row,effect of a mutation on the interaction,Variant
1,with no effect,R361C

# Variants of: B1
# Conditions: with ruvb1_human RUVBL1, Q9Y265
row,effect of a mutation on the interaction,Variant
1,with no effect,R361C

# Variants of: B1
# Conditions: with rxra_human RXRA
row,effect of a mutation on the interaction,Variant
1,with no effect,R361C

# Variants of: B1
# Conditions: with sdha_human SDHA
row,effect of a mutation on the interaction,Variant
1,with no effect,R361C

# Variants of: B1
# Conditions: with setb1_human SETDB1, Q15047
row,effect of a mutation on the interaction,Variant
1,with no effect,R361C

# Variants of: B1
# Conditions: with sf3b1_human SF3B1, O75533
row,effect of a mutation on the interaction,Variant
1,with no effect,R361C

# Variants of: B1
# Conditions: with skp2_human SKP2, Q13309
row,effect of a mutation on the interaction,Variant
1,with no effect,R361C

# Variants of: B1
# Conditions: with smad1_human SMAD1, Q15797
row,effect of a mutation on the interaction,Variant
1,with no effect,R361C

# Variants of: B1
# Conditions: with smad2_human SMAD2, Q15796
row,effect of a mutation on the interaction,Variant
1,with no effect,R361C

# Variants of: B1
# Conditions: with smad3_human SMAD3, P84022
# Chain of smad3_human SMAD3, P84022 (P84022 whole entry, looked up): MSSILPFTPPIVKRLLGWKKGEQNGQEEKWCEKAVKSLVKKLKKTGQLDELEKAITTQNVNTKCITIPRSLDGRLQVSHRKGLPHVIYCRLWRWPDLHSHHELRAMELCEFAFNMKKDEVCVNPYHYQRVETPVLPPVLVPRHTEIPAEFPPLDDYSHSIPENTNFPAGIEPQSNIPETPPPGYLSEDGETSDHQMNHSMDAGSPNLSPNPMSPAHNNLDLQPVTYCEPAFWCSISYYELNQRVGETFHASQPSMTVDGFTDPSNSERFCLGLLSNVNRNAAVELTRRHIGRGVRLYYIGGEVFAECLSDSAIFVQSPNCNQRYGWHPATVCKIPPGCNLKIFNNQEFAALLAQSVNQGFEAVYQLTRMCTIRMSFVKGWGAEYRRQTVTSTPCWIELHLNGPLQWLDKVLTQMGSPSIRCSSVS
row,effect of a mutation on the interaction,Variant
1,with no effect,R361C

# Variants of: B1
# Conditions: with smca4_human SMARCA4, P51532
# Chain of smca4_human SMARCA4, P51532 (P51532 whole entry): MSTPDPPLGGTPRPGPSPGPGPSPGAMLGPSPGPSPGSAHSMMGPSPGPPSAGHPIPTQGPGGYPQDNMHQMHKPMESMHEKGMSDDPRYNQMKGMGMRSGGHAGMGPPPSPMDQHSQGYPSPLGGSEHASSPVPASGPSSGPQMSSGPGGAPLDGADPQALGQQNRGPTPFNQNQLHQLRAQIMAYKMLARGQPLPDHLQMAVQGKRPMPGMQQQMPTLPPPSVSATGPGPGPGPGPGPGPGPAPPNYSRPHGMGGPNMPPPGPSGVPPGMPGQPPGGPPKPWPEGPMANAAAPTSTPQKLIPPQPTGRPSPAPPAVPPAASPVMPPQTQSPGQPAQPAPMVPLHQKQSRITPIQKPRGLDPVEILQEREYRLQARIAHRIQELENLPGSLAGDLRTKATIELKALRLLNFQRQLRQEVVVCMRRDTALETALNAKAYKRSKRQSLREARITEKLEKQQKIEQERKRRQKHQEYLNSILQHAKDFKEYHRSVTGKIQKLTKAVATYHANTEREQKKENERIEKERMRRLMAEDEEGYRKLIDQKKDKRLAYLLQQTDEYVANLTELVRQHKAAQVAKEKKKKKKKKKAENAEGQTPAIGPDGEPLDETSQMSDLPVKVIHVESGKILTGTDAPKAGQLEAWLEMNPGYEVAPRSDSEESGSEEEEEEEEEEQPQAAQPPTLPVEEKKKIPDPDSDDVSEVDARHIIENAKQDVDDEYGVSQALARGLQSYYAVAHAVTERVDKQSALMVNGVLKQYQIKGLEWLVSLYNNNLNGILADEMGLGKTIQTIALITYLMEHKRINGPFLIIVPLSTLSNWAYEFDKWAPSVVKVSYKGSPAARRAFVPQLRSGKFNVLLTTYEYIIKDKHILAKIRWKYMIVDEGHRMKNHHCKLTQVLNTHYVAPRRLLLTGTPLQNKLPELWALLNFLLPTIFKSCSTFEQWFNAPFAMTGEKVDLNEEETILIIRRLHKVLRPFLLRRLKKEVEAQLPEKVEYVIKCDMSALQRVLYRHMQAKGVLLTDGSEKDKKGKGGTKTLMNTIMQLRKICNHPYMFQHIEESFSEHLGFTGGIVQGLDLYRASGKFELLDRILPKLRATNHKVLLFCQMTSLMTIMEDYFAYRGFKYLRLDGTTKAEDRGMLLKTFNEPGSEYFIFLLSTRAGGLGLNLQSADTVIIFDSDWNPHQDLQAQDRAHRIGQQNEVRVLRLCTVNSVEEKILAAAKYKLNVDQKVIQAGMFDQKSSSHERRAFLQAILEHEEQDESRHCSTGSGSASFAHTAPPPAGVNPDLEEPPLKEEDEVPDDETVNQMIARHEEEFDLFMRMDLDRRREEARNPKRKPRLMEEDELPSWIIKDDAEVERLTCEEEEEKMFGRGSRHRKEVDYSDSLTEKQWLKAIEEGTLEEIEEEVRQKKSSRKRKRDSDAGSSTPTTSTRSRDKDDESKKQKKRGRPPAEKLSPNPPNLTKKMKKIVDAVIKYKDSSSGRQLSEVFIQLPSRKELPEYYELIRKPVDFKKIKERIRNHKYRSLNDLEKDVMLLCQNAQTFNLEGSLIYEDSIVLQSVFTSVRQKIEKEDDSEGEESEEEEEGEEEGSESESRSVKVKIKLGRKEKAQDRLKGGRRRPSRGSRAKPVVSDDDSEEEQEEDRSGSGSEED
row,effect of a mutation on the interaction,Variant
1,with no effect,R361C

# Variants of: B1
# Conditions: with snf5_human SMARCB1, Q12824
# Chain of snf5_human SMARCB1, Q12824 (Q12824 whole entry): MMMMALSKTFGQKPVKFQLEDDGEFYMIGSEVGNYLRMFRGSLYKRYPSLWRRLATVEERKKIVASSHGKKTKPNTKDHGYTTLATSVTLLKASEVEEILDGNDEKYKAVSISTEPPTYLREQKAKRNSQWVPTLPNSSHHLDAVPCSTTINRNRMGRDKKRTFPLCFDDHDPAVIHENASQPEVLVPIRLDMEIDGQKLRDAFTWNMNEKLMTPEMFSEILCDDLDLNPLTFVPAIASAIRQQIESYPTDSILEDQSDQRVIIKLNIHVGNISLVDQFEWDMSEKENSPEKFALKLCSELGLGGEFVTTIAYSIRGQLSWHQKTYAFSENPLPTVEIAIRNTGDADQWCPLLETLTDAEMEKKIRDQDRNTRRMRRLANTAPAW
row,effect of a mutation on the interaction,Variant
1,with no effect,R361C

# Variants of: B1
# Conditions: with smo_human SMO
row,effect of a mutation on the interaction,Variant
1,with no effect,R361C

# Variants of: B1
# Conditions: with socs1_human SOCS1, O15524
# Chain of socs1_human SOCS1, O15524 (O15524 whole entry): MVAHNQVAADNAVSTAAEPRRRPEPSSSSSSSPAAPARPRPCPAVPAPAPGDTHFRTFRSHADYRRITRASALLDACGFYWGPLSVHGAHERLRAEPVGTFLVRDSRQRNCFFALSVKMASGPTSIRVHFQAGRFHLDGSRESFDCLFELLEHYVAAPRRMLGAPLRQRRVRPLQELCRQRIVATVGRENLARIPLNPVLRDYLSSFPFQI
row,effect of a mutation on the interaction,Variant
1,with no effect,R361C

# Variants of: B1
# Conditions: with sox10_human SOX10, P56693
# Chain of sox10_human SOX10, P56693 (P56693 whole entry): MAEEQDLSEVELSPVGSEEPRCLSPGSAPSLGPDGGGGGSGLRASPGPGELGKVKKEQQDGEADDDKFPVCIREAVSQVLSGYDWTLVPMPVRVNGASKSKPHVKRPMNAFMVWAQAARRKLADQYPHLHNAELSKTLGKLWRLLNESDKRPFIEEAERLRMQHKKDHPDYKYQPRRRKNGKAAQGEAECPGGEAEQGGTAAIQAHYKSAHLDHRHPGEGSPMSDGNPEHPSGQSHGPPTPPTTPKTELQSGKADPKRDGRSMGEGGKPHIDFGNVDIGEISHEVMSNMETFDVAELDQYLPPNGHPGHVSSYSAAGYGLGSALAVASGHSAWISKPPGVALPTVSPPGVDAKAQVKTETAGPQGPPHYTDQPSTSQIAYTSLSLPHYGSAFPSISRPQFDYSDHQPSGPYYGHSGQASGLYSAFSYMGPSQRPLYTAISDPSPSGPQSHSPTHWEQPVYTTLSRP
row,effect of a mutation on the interaction,Variant
1,with no effect,R361C

# Variants of: B1
# Conditions: with sox2_human SOX2, P48431
row,effect of a mutation on the interaction,Variant
1,with no effect,R361C

# Variants of: B1
# Conditions: with sox3_human SOX3, P41225
row,effect of a mutation on the interaction,Variant
1,with no effect,R361C

# Variants of: B1
# Conditions: with sox4_human SOX4, Q06945
# Chain of sox4_human SOX4, Q06945 (Q06945 whole entry): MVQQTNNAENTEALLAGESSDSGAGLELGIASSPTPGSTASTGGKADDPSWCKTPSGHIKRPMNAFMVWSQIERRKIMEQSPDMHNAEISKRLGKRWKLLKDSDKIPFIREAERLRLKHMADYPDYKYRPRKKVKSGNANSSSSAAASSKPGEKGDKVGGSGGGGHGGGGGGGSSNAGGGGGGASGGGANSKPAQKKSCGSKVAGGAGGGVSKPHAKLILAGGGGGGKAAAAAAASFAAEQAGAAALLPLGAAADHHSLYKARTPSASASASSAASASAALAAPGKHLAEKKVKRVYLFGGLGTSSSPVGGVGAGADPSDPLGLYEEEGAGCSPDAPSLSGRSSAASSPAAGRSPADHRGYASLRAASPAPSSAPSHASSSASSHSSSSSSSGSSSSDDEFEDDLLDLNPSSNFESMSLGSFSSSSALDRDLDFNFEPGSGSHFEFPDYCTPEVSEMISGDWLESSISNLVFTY
row,effect of a mutation on the interaction,Variant
1,with no effect,R361C

# Variants of: B1
# Conditions: with sox9_human SOX9, P48436
row,effect of a mutation on the interaction,Variant
1,with no effect,R361C

# Variants of: B1
# Conditions: with spop_human SPOP
row,effect of a mutation on the interaction,Variant
1,with no effect,R361C

# Variants of: B1
# Conditions: with src_human SRC
row,effect of a mutation on the interaction,Variant
1,with no effect,R361C

# Variants of: B1
# Conditions: with stat3_human STAT3, P40763
row,effect of a mutation on the interaction,Variant
1,with no effect,R361C

# Variants of: B1
# Conditions: with stk38_human STK38, Q15208
row,effect of a mutation on the interaction,Variant
1,with no effect,R361C

# Variants of: B1
# Conditions: with ksyk_human SYK
row,effect of a mutation on the interaction,Variant
1,with no effect,R361C

# Variants of: B1
# Conditions: with eloc_human ELOC
row,effect of a mutation on the interaction,Variant
1,with no effect,R361C

# Variants of: B1
# Conditions: with tfe2_human TCF3, P15923
row,effect of a mutation on the interaction,Variant
1,with no effect,R361C

# Variants of: B1
# Conditions: with tead1_human TEAD1, P28347
row,effect of a mutation on the interaction,Variant
1,with no effect,R361C

# Variants of: B1
# Conditions: with tead2_human TEAD2, Q15562
row,effect of a mutation on the interaction,Variant
1,with no effect,R361C

# Variants of: B1
# Conditions: with tead3_human TEAD3, Q99594
# Chain of tead3_human TEAD3, Q99594 (Q99594 whole entry): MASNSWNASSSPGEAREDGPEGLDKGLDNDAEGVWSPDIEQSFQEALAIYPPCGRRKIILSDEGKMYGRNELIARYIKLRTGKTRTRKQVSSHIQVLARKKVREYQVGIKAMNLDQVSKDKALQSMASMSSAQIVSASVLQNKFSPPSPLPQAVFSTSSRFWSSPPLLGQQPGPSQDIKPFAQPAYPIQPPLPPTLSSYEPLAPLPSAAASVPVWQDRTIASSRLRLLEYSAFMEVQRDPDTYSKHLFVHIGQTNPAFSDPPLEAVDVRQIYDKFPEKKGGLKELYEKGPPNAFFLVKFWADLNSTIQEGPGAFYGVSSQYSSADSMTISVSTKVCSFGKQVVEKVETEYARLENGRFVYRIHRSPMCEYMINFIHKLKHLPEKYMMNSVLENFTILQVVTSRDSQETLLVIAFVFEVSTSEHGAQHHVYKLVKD
row,effect of a mutation on the interaction,Variant
1,with no effect,R361C

# Variants of: B1
# Conditions: with tgfr2_human TGFBR2, P37173
row,effect of a mutation on the interaction,Variant
1,with no effect,R361C

# Variants of: B1
# Conditions: with tnr14_human TNFRSF14, Q92956
# Chain of tnr14_human TNFRSF14, Q92956 (Q92956 whole entry): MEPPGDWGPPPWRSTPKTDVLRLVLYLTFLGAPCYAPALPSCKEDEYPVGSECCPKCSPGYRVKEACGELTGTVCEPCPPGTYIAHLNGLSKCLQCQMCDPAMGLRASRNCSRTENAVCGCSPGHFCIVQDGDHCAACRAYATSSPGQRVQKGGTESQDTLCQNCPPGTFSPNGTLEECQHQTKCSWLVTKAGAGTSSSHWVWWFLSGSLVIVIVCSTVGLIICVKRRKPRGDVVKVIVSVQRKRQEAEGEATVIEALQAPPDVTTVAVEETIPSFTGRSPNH
row,effect of a mutation on the interaction,Variant
1,with no effect,R361C

# Variants of: B1
# Conditions: with tpx2_human TPX2, Q9ULW0
row,effect of a mutation on the interaction,Variant
1,with no effect,R361C

# Variants of: B1
# Conditions: with trrap_human TRRAP
row,effect of a mutation on the interaction,Variant
1,with no effect,R361C

# Variants of: B1
# Conditions: with tsc2_human TSC2, P49815
row,effect of a mutation on the interaction,Variant
1,with no effect,R361C

# Variants of: B1
# Conditions: with tshr_human TSHR
row,effect of a mutation on the interaction,Variant
1,with no effect,R361C

# Variants of: B1
# Conditions: with wt1_human WT1, P19544
row,effect of a mutation on the interaction,Variant
1,with no effect,R361C

# Variants of: B1
# Conditions: with wwtr1_human WWTR1, Q9GZV5
row,effect of a mutation on the interaction,Variant
1,with no effect,R361C

# Variants of: B1
# Conditions: with xpo1_human XPO1, O14980
row,effect of a mutation on the interaction,Variant
1,with no effect,R361C

# Variants of: B1
# Conditions: with 1433b_human YWHAB
row,effect of a mutation on the interaction,Variant
1,with no effect,R361C

# Variants of: B1
# Conditions: with 1433e_human YWHAE
row,effect of a mutation on the interaction,Variant
1,with no effect,R361C

# Variants of: B1
# Conditions: with 1433z_human YWHAZ
row,effect of a mutation on the interaction,Variant
1,with no effect,R361C

# Variants of: B1
# Conditions: with gata2_human GATA2, P23769
# Chain of gata2_human GATA2, P23769 (P23769 whole entry): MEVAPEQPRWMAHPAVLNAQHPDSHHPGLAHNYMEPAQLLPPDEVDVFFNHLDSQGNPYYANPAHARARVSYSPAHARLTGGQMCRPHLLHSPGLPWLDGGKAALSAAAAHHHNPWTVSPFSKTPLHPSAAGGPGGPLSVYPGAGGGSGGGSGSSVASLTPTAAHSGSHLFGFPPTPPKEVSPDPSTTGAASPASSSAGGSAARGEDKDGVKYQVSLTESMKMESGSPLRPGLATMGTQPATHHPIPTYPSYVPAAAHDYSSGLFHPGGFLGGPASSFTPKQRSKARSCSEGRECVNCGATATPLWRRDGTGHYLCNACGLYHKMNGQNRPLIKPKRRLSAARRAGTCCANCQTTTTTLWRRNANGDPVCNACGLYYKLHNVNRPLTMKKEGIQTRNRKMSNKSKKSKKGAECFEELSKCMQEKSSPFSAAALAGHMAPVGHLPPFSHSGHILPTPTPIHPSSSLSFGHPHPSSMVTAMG
row,effect of a mutation on the interaction,Variant
1,decreasing interaction strength,R361C

# Variants of: B1
# Conditions: with smad3_human SMAD3, P84022
# Remark: another data set of the same source
row,effect of a mutation on the interaction,Variant
1,decreasing interaction strength,R361C

# Variants of: B1
# Conditions: with cdk6_human CDK6, Q00534
row,effect of a mutation on the interaction,Variant
1,decreasing interaction strength,R361C
